Measured values taken from the supplement of paper PMC10126150.
± gives the standard deviation of the averaged measurements.

Test system: ATP
Experiment: switch fluorescence ratio, 500 uM ATP over buffer (Cy3 cluster intensity, sum of 5 cycles each) (fold (ratio)); higher = stronger signal-on switching upon ATP binding; sequences stand for … in TCGTCGGCAGCGTCAGATGTGTATAAGAGACAGTTTTTTTTTTTTTTTTTTTTTTTTT…TC
Conditions: aptamer strand: ATP DNA aptamer (quencher-CACCTGGGGGAGTATTGCGGAGGAAGG + anchor), 100 nM annealed; ATP concentration: 500 uM
Outline: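 Imaging in selection buffer was followed by imaging after 15 min with 500 uM ATP at 22 °C, for Cy3-labelled switching-strand clusters annealed to 100 nM quencher-labelled ATP aptamer on a modified Illumina MiSeq flow-cell. Five of these buffer/ATP cycles ran, separated by NaOH stripping and re-annealing. The fluorescence ratio per cluster is summed target-cycle over summed buffer-cycle Cy3 intensity, averaged per switch-domain sequence; clusters outside 100-1000 RFU were removed.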
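Also: ATP exposure 15 min at 22 °C before imaging.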

| Sequence | switch fluorescence ratio |
| --- | --- |
| TGAGGCAGCT | 1.06 ± 0.11 |
| TGAGGCAGGA | 1.04 ± 0.042 |
| TGAGGGAAGA | 1.05 ± 0.051 |
| TGAGGGACGC | 0.996 ± 0.021 |
| TGAGGGATTC | 1 ± 0.047 |
| TGAGGGCAGG | 1.023 ± 0.007 |
| TGAGGGCGGC | 0.962 ± 0.12 |
| TGAGGGCTAG | 1 ± 0.015 |
| TGAGGGCTTT | 1.013 ± 0.0023 |
| TGAGGGGATT | 1 ± 0.022 |
| TGAGGGGCTA | 1.01 ± 0.049 |
| TGAGGGGGAA | 1.03 ± 0.033 |
| TGAGGGGGGC | 1.01 ± 0.044 |
| TGAGGGGGTA | 0.995 ± 0.033 |
| TGAGGGGTGC | 1.04 ± 0.029 |
| TGAGGGTGGG | 1.01 ± 0.058 |
| TGAGGGTTTG | 1.02 ± 0.044 |
| TGAGGTCCCA | 1.01 ± 0.014 |
| TGAGGTGCGA | 1.01 ± 0.023 |
| TGAGGTTAGG | 1 ± 0.012 |
| TGAGGTTTGG | 1.02 ± 0.028 |
| TGAGTAAGGG | 0.991 ± 0.029 |
| TGAGTAAGTA | 0.995 ± 0.048 |
| TGAGTAGAGG | 1 ± 0.02 |
| TGAGTAGCTC | 0.9715 ± 0.0037 |

| Sequence | switch fluorescence ratio |
| --- | --- |
| TGAGTAGGGC | 0.948 ± 0.041 |
| TGAGTAGGGT | 0.992 ± 0.011 |
| TGAGTATTTG | 0.98 ± 0.025 |
| TGAGTCAATT | 0.99 ± 0.032 |
| TGAGTCTCTG | 0.998 ± 0.012 |
| TGAGTCTGCG | 1.02 ± 0.12 |
| TGAGTCTTCG | 1.03 ± 0.017 |
| TGAGTGACTT | 0.974 ± 0.012 |
| TGAGTGGGG | 0.975 ± 0.05 |
| TGAGTGGGGG | 0.982 ± 0.014 |
| TGAGTGTTAC | 1 ± 0.028 |
| TGAGTTGTGT | 1.03 ± 0.075 |
| TGATAAAACG | 0.992 ± 0.041 |
| TGATAAACGG | 1 ± 0.019 |
| TGATAAGTAC | 1.38 ± 0.065 |
| TGATAATAGT | 0.989 ± 0.021 |
| TGATAATTAC | 1.19 ± 0.27 |
| TGATAATTTT | 1 ± 0.039 |
| TGATACACGT | 1 ± 0.013 |
| TGATACCGTG | 1.01 ± 0.017 |
| TGATACGGAG | 0.983 ± 0.06 |
| TGATACTCTG | 1.03 ± 0.029 |
| TGATAGATGT | 0.983 ± 0.026 |
| TGATAGGGTT | 0.985 ± 0.014 |
| TGATATTT | 0.991 ± 0.022 |

| Sequence | switch fluorescence ratio |
| --- | --- |
| TGATATTTGC | 0.969 ± 0.033 |
| TGATCCTATG | 0.992 ± 0.016 |
| TGATCGGCTA | 1.01 ± 0.049 |
| TGATCGTCTG | 1.031 ± 0.0017 |
| TGATGAAGAT | 0.9817 ± 0.0071 |
| TGATGAATGA | 1.001 ± 0.0021 |
| TGATGCAAGT | 1.09 ± 0.032 |
| TGATGCATCG | 1 ± 0.034 |
| TGATGGAAAA | 0.998 ± 0.023 |
| TGATGGATAT | 0.9921 ± 0.0021 |
| TGATGGGGGG | 0.994 ± 0.021 |
| TGATGGGGTT | 0.9969 ± 0.0078 |
| TGATGGGTAG | 0.998 ± 0.028 |
| TGATGGTGGC | 0.997 ± 0.017 |
| TGATGTGGCG | 0.994 ± 0.041 |
| TGATGTGGTG | 0.976 ± 0.018 |
| TGATGTTATG | 0.9911 ± 0.0025 |
| TGATTAAAGG | 1.02 ± 0.025 |
| TGATTAAATA | 0.994 ± 0.028 |
| TGATTACTAG | 0.974 ± 0.017 |
| TGATTCCATT | 0.9991 ± 0.0052 |
| TGATTCTAAG | 0.977 ± 0.019 |
| TGATTCTTCG | 1.01 ± 0.023 |
| TGATTCTTGA | 1.03 ± 0.064 |
| TGATTGAGCC | 0.998 ± 0.047 |

| Sequence | switch fluorescence ratio |
| --- | --- |
| TGATTGATTG | 1.03 ± 0.066 |
| TGATTGCAGC | 0.994 ± 0.028 |
| TGATTGCCCT | 0.9925 ± 0.0044 |
| TGATTGGGAA | 0.995 ± 0.021 |
| TGATTGGGAC | 0.9673 ± 0.0074 |
| TGATTGTATT | 0.979 ± 0.015 |
| TGATTGTTAG | 0.988 ± 0.023 |
| TGATTTAATT | 0.97 ± 0.036 |
| TGATTTAGGA | 1.01 ± 0.036 |
| TGATTTATTG | 0.985 ± 0.03 |
| TGATTTATTT | 0.9927 ± 0.0048 |
| TGATTTCACG | 1.02 ± 0.011 |
| TGATTTCTTT | 0.997 ± 0.0018 |
| TGATTTGACA | 1.01 ± 0.013 |
| TGATTTGGGT | 1.01 ± 0.021 |
| TGATTTTACG | 0.983 ± 0.019 |
| TGATTTTGGT | 1.01 ± 0.025 |
| TGCAAAAGGG | 1.024 ± 0.0074 |
| TGCAAAATAA | 1.17 ± 0.24 |
| TGCAAAATTG | 0.995 ± 0.024 |
| TGCAAAGGTG | 1.34 ± 0.094 |
| TGCAAATTCC | 1.11 ± 0.021 |
| TGCAACACAT | 1.03 ± 0.029 |
| TGCAACGTTT | 0.971 ± 0.024 |
| TGCAAGAAGT | 1.022 ± 0.0069 |
